Where two headings read alike, the source gives them in different places. *1 amine or outer side, *2 acyl side, *3 side chain or, on linkers, in order; H or OH if unused. Where a SMILES comes first, the peptide text is derived from it. Where no end group is shown, it is not given here. [ ]: non-standard residue; d: D form. The star is where a group is joined. NEtW = N-ethyl-tryptophan (F149), CCN([C@@H](Cc1c[nH]c2ccccc12)C(=O)[*:2])[*:1]; X1 = CCn1cc(C[C@H](N[*:1])C(=O)[*:2])c2ccccc21; X3 = COc1ccc(C[C@H](N[*:1])C(=O)[*:2])cc1C; X4 = O=C([C@H](Cc1ccc(CO)cc1)N[*:1])[*:2]; Piperazinyl(4-Me) = CN1CCN(*)CC1; F182 = not defined here; Ac4c = NC1(C(=O)O)CCC1; F72 = not defined here
Tests used:
[1] = biological target: T1, GABABR1a-SD1 (SD1-FITC-9mer complex) (Homo sapiens, UniProt Q9UBS5); assay: Fluorescence polarization (FP) competition assay with FITC-9mer; format: binding; details: for inhibition at 50 µM: peptide at 50 μM, inhibition of FITC-9mer binding to SD1; for IC50: competition with FITC-9mer for SD1
T1 construct: The synthetic gene encoding for residues 26-96 of the Sushi1 protein was cloned into a pFloat-SUMO vector; His-SUMO (with 3C protease site) (N, cleaved yes); made in house; host or cells: E. coli BL21(DE3)
Protocol: Intrigued by the surprising results of the 5-mer, it was decided to set up a medium- to high-throughput screen to optimize the 5-mer sequence. Several assays were tested to find a reproducible, robust and cost-effective assay that is also suitable for high-throughput screening. A fluorescence polarization (FP) assay was selected. FP measurements are well-known for receptor binding assays. The assay is based on the rotational movement of fluorescently labelled molecules in solution. […] The FP assay was optimized using the FITC labelled sAPP 9-mer (FIG. 1).
(§1) To screen for GABABR1a binders using unlabelled test compounds, the assay was turned into a competition assay using FITC-9mer. […] To validate this inhibitor assay, the IC50 values were determined of the 17-mer, 9-mer, 5-mer as well as those from 3 negative controls: 10-mer, scrambled 17-mer and a scrambled 9-mer (FIG. 2).
(§2) To determine if the peptides of this application were able to disrupt the SD1-9-mer complex, each peptide (in single point or dose-response curve) tested was incubate with SD1 protein for 1 h at RT. After this initially incubation, FITC-9mer was added to the previous mix and incubated during 2 h at RT. The signal intensity was measure in an appropriate plate reader using the following settings: Number of flashes per well: 200; Excitation: F482-16; Dichroic filter: FLP 504; Emission A F530-40; Gain A: 738, Gain B: 736. The assay was conducted in a 384-well plate.

[2] = biological target: T2, Sushi domain 1 of the human GABA B1a receptor (human, UniProt Q9UBS5 26-96); assay: ITC, peptide titrated into purified SD1
T2 construct: Purified recombinant protein from E. coli; also called SD1; GABABR1a-SD1
T2 sequence (Q9UBS5 26-96 limits assumed): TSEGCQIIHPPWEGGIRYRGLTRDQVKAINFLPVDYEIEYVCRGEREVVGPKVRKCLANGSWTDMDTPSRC
Protocol: The Sushi-1 protein was dialysed overnight to PBS buffer and diluted to 30 μM in the same buffer. The peptides were resuspended in PBS at a stock concentration of 3 mM and diluted further in the same buffer to 300 μM. ITC experiments were performed on a Microcal ITC200 device. Titrations comprised 26×1.5 μL injections of peptide into protein, with 90 s intervals. An initial injection of ligand (0.5 μL) was made and discarded during data analysis. The data were fitted to a single binding site model using the Microcal LLC ITC₂₀₀. Original software provided by the manufacturer.

[3] = biological target: T2, Sushi domain 1 of the human GABA B1a …; assay: FP competition vs FITC-9mer on purified SD1
Protocol: as §1
Based on structural information of DIYWS-SD1 and DIWWS-SD1 co-crystals, 48 peptides containing non-natural residues were manually designed and checked for binding to the GABABR1a SD1 in the FP assay at a concentration of 50 μM. These non-natural peptides were categorized based on the IC50 values obtained in the FP assay (Table 3). […] The listed non-natural 5-mers all share D-aspartate was on position 1 (residue position 4 of the 9-mer), L-isoleucine on position 2 (residue position 5 of the 9-mer), L-tryptophane on position 4 (residue position 7 of the 9-mer) and L-serine on position 5 (residue position 8 of the 9-mer), while position 3 is selected from the list consisting of L-tyrosine, isoethylmethyl-benzene, 6-chloro-3-methyl-1H-indole, methylcyclohexane, ethylcyclohexane, 2-naphthalene, ethylbenzene, 1,1-difluoro-4-cyclohexyl, 4-methyl-1-methoxy-2-methylbenzene, 1-chloro-4-methylbenzene, 4-methylphenyl-methanol, 3-methylbenzoic acid and 4-methylaniline.

[4] = biological target: T3, Ectodomain of GABABR1a comprising SD1, expressed on HEK293 cells with N-terminal His-tag (human, UniProt Q9UBS5 20-591, limits assumed); assay: flow cytometry competition vs biotin-9mer on HEK293 cells expressing GABABR1a ectodomain
T3 construct: extracellular domain; also called GABABR1a-SD1 (on cells); GABABR1a ectodomain
T3 sequence (Q9UBS5 20-591 limits assumed): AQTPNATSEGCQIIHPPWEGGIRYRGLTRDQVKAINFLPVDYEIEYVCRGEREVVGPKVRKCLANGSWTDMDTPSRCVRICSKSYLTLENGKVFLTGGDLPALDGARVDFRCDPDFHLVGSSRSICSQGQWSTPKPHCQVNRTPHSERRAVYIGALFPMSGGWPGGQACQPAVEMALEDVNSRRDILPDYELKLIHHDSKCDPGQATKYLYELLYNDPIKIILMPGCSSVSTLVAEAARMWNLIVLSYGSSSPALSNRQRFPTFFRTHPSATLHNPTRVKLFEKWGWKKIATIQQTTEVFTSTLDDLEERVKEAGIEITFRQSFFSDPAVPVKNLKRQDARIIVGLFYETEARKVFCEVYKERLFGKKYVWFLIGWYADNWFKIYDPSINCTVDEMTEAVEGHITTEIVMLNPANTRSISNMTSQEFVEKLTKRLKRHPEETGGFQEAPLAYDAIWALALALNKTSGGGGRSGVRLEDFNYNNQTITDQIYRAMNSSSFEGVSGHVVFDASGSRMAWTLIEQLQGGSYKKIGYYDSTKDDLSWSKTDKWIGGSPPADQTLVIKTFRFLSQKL
Protocol: Next, the top ranking compounds were tested in a cell-based binding assay. HEK293 cells were transformed to express the ectodomain of GABABR1a comprising SD1. In this cell-based assay, SD1 is expressed on the GABABR1a ectodomain and can adopt a more physiological conformation, compared to the purified SD1 protein used in the primary assay (FP assay). Before testing the active compounds, it was confirmed that 9-mer (tagged with Biotin) binds specifically to cells expressing GABABR1a-SD1 and not GABABR1b.
HEK293 were transfected with plasmids encoding the ectodomain of GABABR1a (as in Rice et al., 2019), carrying a His-tag at the N-terminal. After 24 h of expression, cells were harvested and adjusted to a concentration of 1×10^6 cells/mL in ice-cold 2% FBS/PBS. Incubation with each peptide (in dose-response curve) was carried out at 4° C. for 1 h, followed by incubation with the biotion-9mer (10 μM) peptide during 30 min. Detection antibodies recognizing either His protein or biotin were added for a period of 30 min. The assay plate containing the cells was loaded into the Attune NxT Cytometer, parameters were adjusted accordingly with the cell type and signal intensity. In each experiment, positive and negative control were added to the plate.

[5] = biological target: T2, Sushi domain 1 of the human GABA B1a …; assay: FP competition vs FITC-9mer on purified SD1; remark: listed apart in the source
Protocol: Next, 35 variants of the DVWWG 5-mer peptide containing natural residues were tested in the above described FP assay. The peptides were tested at a concentration of 50 μM.
as §2

Molecule: CC[C@H](C)[C@H](NC(=O)[C@H](N)CC(=O)O)C(=O)N[C@@H](Cc1ccc(Cl)cc1)C(=O)N[C@@H](Cc1c[nH]c2ccccc12)C(=O)N[C@@H](CO)C(=O)O [VIB-0068912]
- inhibition at 50 µM [1]: 66.2%

Molecule: PVHMS [VIB_P44]
- inhibition at 50 µM [1]: -7%

Molecule: CC[C@H](C)[C@H](NC(=O)[C@H](N)CC(=O)O)C(=O)N[C@@H](Cc1cccc(C(=O)O)c1)C(=O)N[C@@H](Cc1c[nH]c2ccccc12)C(=O)N[C@@H](CO)C(=O)O [VIB-0068908]
- inhibition at 50 µM [1]: 53.1%

Molecule: CC[C@H](C)[C@H](NC(=O)[C@H](N)CC(=O)O)C(=O)N[C@@H](Cc1ccc(O)cc1)C(=O)N[C@@H](Cc1c[nH]c2ccccc12)C(=O)N[C@@H](CO)C(=O)O [VIB-0068902, dIYWS]
- IC50 [1]: 11.6 µM
- inhibition at 50 µM [1]: 76.8%

Molecule: CC[C@H](C)[C@H](NC(=O)[C@H](N)CC(=O)O)C(=O)N[C@@H](Cc1ccc(O)cc1)C(=O)N[C@@H](Cc1c[nH]c2ccccc12)C(=O)N[C@@H](CO)C(=O)NCC(=O)N1CCN(C)CC1 [VIB-0068875] (H-[dD]IYWSG-{Piperazinyl(4-Me)}; N-terminus assumed)
- inhibition at 50 µM [1]: 41.8%

Molecule: CC[C@H](C)[C@H](NC(=O)[C@@H](CC(=O)O)NC(=O)C1(N)CCC1)C(=O)N[C@@H](Cc1ccc(O)cc1)C(=O)N[C@@H](Cc1c[nH]c2ccccc12)C(=O)N[C@@H](CO)C(=O)O [VIB-0068884] (H-[Ac4c][dD]IYWS-OH; C-terminus assumed)
- inhibition at 50 µM [1]: 41.5%

Molecule: CC[C@H](C)[C@H](NC(=O)[C@H](N)CC(=O)O)C(=O)N[C@@H](Cc1ccc(OC)c(C)c1)C(=O)N[C@@H](Cc1c[nH]c2ccccc12)C(=O)N[C@@H](CO)C(=O)O [VIB-0068906] (H-[dD]I[X3]WS-OH; N-terminus and C-terminus assumed)
- inhibition at 50 µM [1]: 70.8%

Molecule: CC[C@H](C)[C@H](NC(=O)[C@H](N)CC(=O)O)C(=O)N[C@@H](Cc1ccc(CO)cc1)C(=O)N[C@@H](Cc1c[nH]c2ccccc12)C(=O)N[C@@H](CO)C(=O)O [VIB-0068896] (H-[dD]I[X4]WS-OH; N-terminus and C-terminus assumed)
- inhibition at 50 µM [1]: 56.6%

Molecule: CC[C@H](C)[C@H](NC(=O)[C@H](N)CC(=O)O)C(=O)N[C@@H](Cc1ccc(O)cc1)C(=O)N[C@@H](Cc1ccc(O)cc1)C(=O)N[C@@H](CO)C(=O)O [VIB-0068914, dIYYS] (H-[dD]IYYS-OH; N-terminus and C-terminus assumed)
- IC50 [1]: 25.1 µM
- inhibition at 50 µM [1]: 72.4%

Molecule: CC[C@H](C)[C@H](NC(=O)[C@H](N)CC(=O)O)C(=O)N[C@@H](Cc1ccc(N)cc1)C(=O)N[C@@H](Cc1c[nH]c2ccccc12)C(=O)N[C@@H](CO)C(=O)O [VIB-0068909]
- inhibition at 50 µM [1]: 44.2%

Molecule: CC[C@H](C)[C@H](NC(=O)[C@H](N)CC(=O)O)C(=O)N[C@@H](Cc1cn(CC)c2ccccc12)C(=O)N[C@@H](Cc1c[nH]c2ccccc12)C(=O)N[C@@H](CO)C(=O)O [VIB-0068904] (H-[dD]I[X1]WS-OH; N-terminus and C-terminus assumed)
- inhibition at 50 µM [1]: 26.7%

Molecule: CC[C@H](C)[C@H](NC(=O)[C@H](N)CC(=O)O)C(=O)N[C@@H](Cc1ccc(O)cc1)C(=O)N[C@@H](Cc1c[nH]c2ccccc12)C(=O)N[C@@H](CO)C(=O)Nc1nncs1 [VIB-0068870]
- inhibition at 50 µM [1]: 34.6%

B1: VIB-0068911 (peptide)
peptide: [dD]I[F72]WS
modifications: not fully specified; reading uncertain
notes: Peptidomimetic 5-mer; X marks the non-natural residue
- Kd [2]: 0.54 µM
- % inhibition 50 µM [3]: 98.1%
- IC50 [3]: 6.54 µM
- % inhibition 100 µM [4]: 90%
- IC50 [4]: 38 µM

B2: VIB-0068910 (peptide)
peptide: DIXWS
modifications: D-aspartic acid at position 1; position 3 (X) is the non-natural residue F70 = ethylbenzene
notes: as for B1
- Kd [2]: 2.9 µM
- % inhibition 50 µM [3]: 88.6%
- IC50 [3]: 11.9 µM
- % inhibition 100 µM [4]: 54.2%

B3: VIB-0068894 (peptide)
peptide: DIXWS
modifications: D-aspartic acid at position 1; position 3 (X) is the non-natural residue F126 = 6-chloro-3-methyl-1H-indole
notes: as for B1
- Kd [2]: 0.34 µM
- % inhibition 50 µM [3]: 96.8%
- IC50 [3]: 7.12 µM
- % inhibition 100 µM [4]: 84.2%
- IC50 [4]: 28.7 µM

B4: VIB-0068907 (peptide)
peptide: [dD]I[F182]WS
modifications: not fully specified; reading uncertain
notes: as for B1
- Kd [2]: 2.47 µM
- % inhibition 50 µM [3]: 86.2%
- IC50 [3]: 12.6 µM
- % inhibition 100 µM [4]: 47.2%
- IC50 [4]: 49.2 µM

B5: VIB-0068895 (peptide)
peptide: DIXWS
modifications: not fully specified; D-aspartic acid at position 1; position 3 (X) is the non-natural residue F195 = 2-naphtalene
notes: as for B1
- Kd [2]: 1.39 µM
- % inhibition 50 µM [3]: 96.3%
- IC50 [3]: 11.1 µM
- % inhibition 100 µM [4]: 77%
- IC50 [4]: 43.3 µM

B6: VIB-0068904 (peptide)
peptide: [dD]I[NEtW]WS
notes: Peptidomimetic 5-mer; position 3 is written W for N-ethyl-tryptophan
- Kd [2]: 1.02 µM
- % inhibition 50 µM [3]: 26.7%

Molecule: DIHWG [VIB_P36]
- Kd [2]: 18.4 µM
- % inhibition 50 µM [5]: 25.5%

Molecule: PIHWS [VIB_P45]
- Kd [2]: 38 µM

Molecule: DIWWS (also called VIB_34; DIWWS) [VIB_P34]
- Kd [2]: 1.02 µM
- % inhibition 50 µM [5]: 81.9%

Molecule: DVHWS [VIB_P23]
- Kd [2]: 25.1 µM

B7: VIB-0068903 (peptide)
peptide: DIXWS
modifications: D-aspartic acid at position 1; position 3 (X) is the non-natural residue F141 = ethylcyclohexane
notes: as for B1
- Kd [2]: 0.93 µM
- % inhibition 50 µM [3]: 93.9%
- IC50 [3]: 8.22 µM
- % inhibition 100 µM [4]: 76%
- IC50 [4]: 154 µM

B8: VIB-0068905 (peptide)
peptide: DIXWS
modifications: D-aspartic acid at position 1; position 3 (X) is the non-natural residue F15 = methylcyclohexane
notes: as for B1
- Kd [2]: 0.25 µM
- % inhibition 50 µM [3]: 94.8%
- IC50 [3]: 8.11 µM
- % inhibition 100 µM [4]: 68.3%
- IC50 [4]: 78.8 µM

B9: VIB-0068896 (peptide)
peptide: DIXWS
modifications: D-aspartic acid at position 1; position 3 (X) is the non-natural residue F44 = (4-methylphenyl)methanol
notes: as for B1
- Kd [2]: 7.46 µM
- % inhibition 50 µM [3]: 56.6%
- IC50 [3]: 48 µM

Reference: patent US20240376149A1, “Novel Modulators of GABABR1a” (VIB VZW, priority 2021, published 2024)
